This note sets out measurements from patent US20230220042A1 (SHANGHAI JIAO TONG UNIVERSITY SCHOOL OF MEDICINE, published 2023).

One assay addresses Biotin-FcγRIIB (human) (UniProt P31994). Put plainly: FACS sorting of displayed Fc library on biotin-FcγRIIB, NGS.
Assay [1] addresses T1, Biotin-FcγRIIB (human, UniProt P31994 43-217, limits assumed, biotin-labelled).
T1 construct: Bought, biotin-labelled; used at 1 µg/ml for staining and sorting; also called human FcγRIIB; CD32b
T1 sequence (looked up): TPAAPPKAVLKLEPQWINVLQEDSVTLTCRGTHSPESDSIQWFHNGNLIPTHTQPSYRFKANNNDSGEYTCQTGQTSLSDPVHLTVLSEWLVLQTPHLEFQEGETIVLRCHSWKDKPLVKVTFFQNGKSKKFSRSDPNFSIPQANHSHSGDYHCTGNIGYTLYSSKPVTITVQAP
Put plainly: magnetic sorting on biotin-FcγRIIB with unlabelled activating FcγRs, NGS; LibraryMix #3. The procedure:
3T3 cells were collected by trypsin digestion, and a single cell suspension was prepared. […] The cells were incubated for 15 minutes on ice and then washed twice with MACS buffer and re-suspended in 100 μl MACS buffer. Twenty-five μl anti-Biotin magnetic beads were added, and the cells were incubated for 15 minutes on ice and then washed once with MACS buffer and re-suspended to 500 μl, and added to the LS column put in the magnetic field. The effluent was collected, washed with 3 mL of MACS buffer and collected; The LS column was then removed out of the magnetic field, and 5 mL of MACS buffer was used to rapidly elute the remaining cells from the sorting column to collect positive cells, which are the high I/A ratio cells.

Assay [2] has as its target T1, Biotin-FcγRIIB. Put plainly: FACS sorting of displayed Fc library on biotin-FcγRIIB, NGS; reference P271G.
Assay [3] addresses T1, Biotin-FcγRIIB. Put plainly: FACS sorting of displayed Fc library on biotin-FcγRIIB, NGS.

Consider “human IgG2 anti-mouse CD40 surface displayed antibody, Fc mutant P271W”, for which, in the assay with Biotin-FcγRIIB (human), the Increased factor b Site 2 (point mutation/wild-type) was found to be 0.4.
Same read-out and setting: in the case of “human IgG2 anti-mouse CD40 surface displayed antibody, Fc mutant P329S” it was 1.2.
Still for that read-out and setting: in the case of “human IgG2 anti-mouse CD40 surface displayed antibody, Fc mutant I332E” it was 1.1; in that of “human IgG2 anti-mouse CD40 surface displayed antibody, Fc mutant T299W”, 0.5.
The same measure, in the same setting: next, “human IgG2 anti-mouse CD40 surface displayed antibody, Fc mutant I332T”: 1.6; “human IgG2 anti-mouse CD40 surface displayed antibody, Fc mutant T299S”: 0.6; “human IgG2 anti-mouse CD40 surface displayed antibody, Fc mutant D270H”: 1.3.
Take “human IgG2 anti-mouse CD40 surface displayed antibody, Fc mutant S298R”: in the assay with Biotin-FcγRIIB (human), the Increased factor b Site 2 (point mutation/wild-type) was determined as 0.8.
Same read-out and setting: in the case of “human IgG2 anti-mouse CD40 surface displayed antibody, Fc mutant G236V” it was 0.5.
Still for that read-out and setting: next, “human IgG2 anti-mouse CD40 surface displayed antibody, Fc mutant T299A”: 0.4; “human IgG2 anti-mouse CD40 surface displayed antibody, Fc mutant S298D”: 1.6; “human IgG2 anti-mouse CD40 surface displayed antibody, Fc mutant S298G”: 1.2.

B1: human IgG2 anti-mouse CD40 surface displayed antibody, Fc mutant P271G/S298N (antibody, name in EU numbering)
light chain (with the P2A rest): DTVLTQSPALAVSPGERVTISCRASDSVSTLMHWYQQKPGQQPKLLIYLASHLESGVPARFSGSGSGTDFTLTIDPVEADDTATYYCQQSWNDPWTFGGGTKLELKRTVAAPSVFIFPPSDEQLKSGTASVVCLLNNFYPREAKVQWKVDNALQSGNSQESVTEQDSKDSTYSLSSTLTLSKADYEKHKVYACEVTHQGLSSPVTKSFNRGECGSGATNFSLLKQAGDVEENPG
heavy chain: EVQLVESDGGLVQPGRSLKLPCAASGFTFSDYYMAWVRQAPTKGLEWVASISYDGSSTYYRDSVKGRFTISRDNAKSTLYLQMDSLRSEDTATYYCGRHSSYFDYWGQGVMVTVSSASTKGPSVFPLAPCSRSTSESTAALGCLVKDYFPEPVTVSWNSGALTSGVHTFPAVLQSSGLYSLSSVVTVPSSNFGTQTYTCNVDHKPSNTKVDKTVERKCCVECPPCPAPPVAGPSVFLFPPKPKDTLMISRTPEVTCVVVDVSHEDGEVQFNWYVDGVEVHNAKTKPREEQFNNTFRVVSVLTVVHQDWLNGKEYKCKVSNKGLPAPIEKTISKTKGQPREPQVYTLPPSREEMTKNQVSLTCLVKGFYPSDIAVEWESNGQPENNYKTTPPMLDSDGSFFLYSKLTVDKSRWQQGNVFSCSVMHEALHNHYTQKSLSLSPGKLEPPPSTVSNMATVAVLVVLGAAIVTGAVVAFVMKMRRRNTGGKGGDYALAPGSQTSDLSLPDCKVMVHDPHSLA
notes: as m1; positions are Eu numbers; copies: 2 + 2
B1: in the assay with Biotin-FcγRIIB [1], the “Enrichment factor (percentage after sorting/percentage before sorting)” value turned out to be 2.31, the “Increased factor (mutation enrichment factor/wild-type enrichment factor)” value was 2.04, the “Percentage after sorting/unbinding percentage” value is 11.9 and the “Percentage before sorting/unbinding percentage” value worked out at 5.17. In the assay with Biotin-FcγRIIB [2], the “Increased factor 2 c Site 1 (combined/point mutation)” value stood at 5.1. Further, in the assay with Biotin-FcγRIIB [3], the “Enrichment factor (after/before sorting)” value came out at 18 and the “Increased factor a (enrichment factor/wild-type enrichment factor)” value was found to be 24.
